Consider eight molecules from US20180318382 (published 2018).

Like-named read-outs stand apart in the source and are kept apart here. Where no end group is shown, it is not given here.

In test [1] the target is T1, CAL PDZ (human, UniProt Q9HD26). As to the kind of experiment: FP, competition.
The next test concerns the target T2, TIP-1 (human, UniProt O14907).
T2 chain: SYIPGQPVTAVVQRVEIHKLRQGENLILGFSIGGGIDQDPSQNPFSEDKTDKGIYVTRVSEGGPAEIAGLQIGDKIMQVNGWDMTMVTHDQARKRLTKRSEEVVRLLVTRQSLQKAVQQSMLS
As to the kind of experiment: FP, competition.

For the next test, the target named is T3, NHERF-1 PDZ1 (human, UniProt O14745).
T3 chain: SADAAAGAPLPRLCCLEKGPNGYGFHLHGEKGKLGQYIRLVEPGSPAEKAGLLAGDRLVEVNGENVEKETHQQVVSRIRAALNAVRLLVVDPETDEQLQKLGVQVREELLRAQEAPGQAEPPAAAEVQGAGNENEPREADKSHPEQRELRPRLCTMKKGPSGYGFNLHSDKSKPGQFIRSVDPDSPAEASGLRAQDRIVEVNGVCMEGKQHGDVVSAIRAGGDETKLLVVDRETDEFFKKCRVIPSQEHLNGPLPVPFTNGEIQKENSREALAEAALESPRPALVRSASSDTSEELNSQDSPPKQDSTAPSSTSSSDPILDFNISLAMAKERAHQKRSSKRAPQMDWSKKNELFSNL
As to the kind of experiment: FP, competition.

A further test deals with T4, NHERF-1 PDZ2 (human, UniProt O14745).
T4 chain: T3 chain
Put plainly: FP, competition.

Test [2] has as its target T1, CAL PDZ.

What is called Ki is a measure of affinity in units of concentration, obtained from inhibition or displacement. Turning to Ac-WPVTRV [Ac-WPVTRV], the Ki with CAL PDZ [1] was found to be 1220 nM; with TIP-1, 0.258 µM.
Consider ANSRLPTSK(Ac)I [ANSRLPTS[Ac-K]I], for which the inhibition constant (Ki) was greater than 5000 µM in the test with NHERF-1 PDZ1, greater than 5000 µM with TIP-1 and greater than 5 mM with NHERF-1 PDZ2.
On to ANSRWQVTRV [ANSRWQVTRV (second entry)], for which the figures for the inhibition constant (Ki) in the test with CAL PDZ [1], with NHERF-1 PDZ1 and with TIP-1 were 1130 nM, 2.8 µM and 0.057 µM, respectively.
With Ac-LPVTRV [Ac-LPVTRV], the figures for the Ki with CAL PDZ [1] and with TIP-1 were 4420 nM and greater than 5000 µM, respectively.
Turning to ANSRLPTSKI [ANSRLPTS[K-AEBA]I], the Ki was greater than 5000 µM with NHERF-1 PDZ1, greater than 5000 µM in the test with TIP-1 and greater than 5 mM with NHERF-1 PDZ2.
Take ANSRLPTSII [iCAL42 ANSRLPTSII]: the values for the Ki with NHERF-1 PDZ1, in the test with TIP-1 and with NHERF-1 PDZ2 were greater than 5000 µM, greater than 5000 µM and greater than 5 mM, respectively.
In the test with CAL PDZ [2], Ac-WQVTRV [kCAL01] yielded a Ki of roughly 1000 nM.
For ANSRWQVTRV, the inhibition constant (Ki) came out at 1170 nM with CAL PDZ [1], 2.8 µM in the test with NHERF-1 PDZ1, 0.057 µM in the test with TIP-1 and 0.208 mM with NHERF-1 PDZ2.
